Results: paper PMC3531493, “Inhibition of a NEDD8 Cascade Restores Restriction of HIV by APOBEC3G” (PLoS Pathogens, 2012)

B1: RBX2 RING domain (44-113) (domain or fragment, UniProt Q9UBF6 44-113, looked up)
chain: DVECDTCAICRVQVMDACLRCQAENKQEDCVVVWGECNHSFHNCCMSLWVKQNNRCPLCQQDWVVQRIGK
notes: RBX2 (RING-box protein 2), RING domain, residues 44-113; 15N-labelled when the E2 enzymes were added to it; unlabelled when added to 15N UBE2F core; also called RBX2 core domain; source: E. coli BL21(DE3)-Star or BL21(DE3), with ZnCl2, purified (Ni-NTA, TEV cleavage, SEC)

What was measured:
[1] = molecular target: CUL5/RBX2 complex (UniProt Q93034)
[2] = molecular target: T1, UBE2F, full-length (UniProt Q969M7 1-185); experiment: NMR titration; 15N-HSQC of 50 µM 15N-labelled RBX2 RING with unlabelled E2 added (∼100 µM in Fig. 3D; increasing concentrations in Fig. 5D); 20°C; 100 mM NaCl, 1 mM DTT, 25 mM HEPES pH 7.5; details: both partners purified
T1 construct: UBE2F, NEDD8-conjugating enzyme, full-length; Unlabelled in the HSQC experiments on 15N-labelled RBX2 RING; also called NEDD8 E2; NEDD8-conjugating enzyme UBE2F; source: E. coli BL21(DE3)-Star or BL21(DE3), purified (Ni-NTA, TEV cleavage, SEC)
T1 sequence (looked up): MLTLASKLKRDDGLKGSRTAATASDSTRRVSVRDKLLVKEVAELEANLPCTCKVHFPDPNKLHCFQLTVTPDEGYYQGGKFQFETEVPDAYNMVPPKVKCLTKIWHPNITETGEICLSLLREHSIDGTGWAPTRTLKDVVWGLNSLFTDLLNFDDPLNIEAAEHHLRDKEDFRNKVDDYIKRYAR

[3] = molecular target: T2, UBE2F residues 26-185 (UBE2F core) (UniProt Q969M7 26-185); experiment: as above; details: both partners purified
T2 construct: UBE2F, residues 26-185 (UBE2F core); Unlabelled when added to 15N RBX2 RING; 15N-labelled when RBX2 RING was added to it; source: E. coli BL21(DE3)-Star or BL21(DE3), purified (Ni-NTA, TEV cleavage, SEC)
T2 sequence (looked up): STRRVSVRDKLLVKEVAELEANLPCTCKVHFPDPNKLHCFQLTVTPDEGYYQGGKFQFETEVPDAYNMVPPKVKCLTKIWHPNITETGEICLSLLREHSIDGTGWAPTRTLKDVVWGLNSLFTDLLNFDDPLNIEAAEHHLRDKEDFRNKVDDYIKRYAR

Sequence of CUL5/RBX2 complex (Q93034 whole entry, one chain of several): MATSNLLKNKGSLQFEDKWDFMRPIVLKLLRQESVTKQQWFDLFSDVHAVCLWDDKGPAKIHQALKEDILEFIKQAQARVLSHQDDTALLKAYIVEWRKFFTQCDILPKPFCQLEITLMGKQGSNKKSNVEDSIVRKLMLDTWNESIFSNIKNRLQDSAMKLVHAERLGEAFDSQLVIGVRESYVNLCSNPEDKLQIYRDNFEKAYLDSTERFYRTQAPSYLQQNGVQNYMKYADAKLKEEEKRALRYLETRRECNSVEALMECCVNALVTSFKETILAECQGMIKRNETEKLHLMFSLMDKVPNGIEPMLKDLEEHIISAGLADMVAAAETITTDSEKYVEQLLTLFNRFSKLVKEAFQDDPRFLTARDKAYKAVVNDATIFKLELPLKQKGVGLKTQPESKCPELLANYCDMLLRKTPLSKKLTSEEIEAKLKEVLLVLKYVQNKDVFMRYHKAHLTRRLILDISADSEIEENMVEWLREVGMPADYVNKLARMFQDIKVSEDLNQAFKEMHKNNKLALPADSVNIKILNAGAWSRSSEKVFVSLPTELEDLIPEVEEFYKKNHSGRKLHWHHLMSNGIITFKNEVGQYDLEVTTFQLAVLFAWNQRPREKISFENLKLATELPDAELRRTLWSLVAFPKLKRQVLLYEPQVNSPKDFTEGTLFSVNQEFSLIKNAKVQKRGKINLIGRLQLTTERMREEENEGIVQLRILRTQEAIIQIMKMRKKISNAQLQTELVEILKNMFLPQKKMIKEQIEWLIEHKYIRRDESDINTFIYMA

Molecule	rate of NEDD8 transfer from UBE2F mutant to CUL5/RBX2 (pulse-chase), against wild-type UBE2F (orders of magnitude (reduction)) [1]	binding result [2]	binding result [3]
UBE2F (N92A) (from UniProt Q969M7 26-185) (enzyme)	3		
B1		binds	binds
